Measurements from article PMC6773860.

Legend:
[1] = molecular target: human JAM-A on the surface of Lec2-JAM-A cells (human) (UniProt Q9Y624); assay: single-virus force spectroscopy (FD-based AFM); virions on the AFM tip; living Lec2-JAM-A cells co-cultured with fluorescent Lec2 cells; PeakForce QNM mode, 37 °C, culture medium, 5% CO2; no glycan added
[2] = molecular target: His6-tagged JAM-A (junctional adhesion molecule A) (UniProt Q9Y624); assay: single-virus force spectroscopy (FD-based AFM); virions or ISVPs covalently linked by a PEG27 spacer to the AFM tip; His6-JAM-A immobilised on an NTA-Ni2+ gold surface; virus buffer (150 mM NaCl, 15 mM MgCl2, 10 mM Tris pH 7.4), ~25 °C; single bonds fitted with the Bell-Evans model; no glycan added
[3] = molecular target: His6-tagged JAM-A (junctional adhesion molecule A) (UniProt Q9Y624); assay: single-virus force spectroscopy (FD-based AFM); as a1, after injection of 1 mM sialylated glycan (Neu5Ac or LSTa)
[4] = molecular target: human JAM-A on the surface of Lec2-JAM-A cells (human) (UniProt Q9Y624); assay: single-virus force spectroscopy (FD-based AFM); as a4, the same area scanned again after adding 1 mM LNnT to the culture medium
[5] = molecular target: human JAM-A on the surface of Lec2-JAM-A cells (human) (UniProt Q9Y624); assay: single-virus force spectroscopy (FD-based AFM); as a4, the same area scanned again after adding 1 mM Neu5Ac or 1 mM LSTa to the culture medium; also on cells treated before with neuraminidase (40 mUnit/mL, 1 h)
[6] = molecular target: His6-tagged junctional adhesion molecule A (UniProt Q9Y624); assay: single-virus force spectroscopy (FD-based AFM); virus particles on the AFM tip through a PEG27 linker; His6-JAM-A on an NTA-Ni2+ gold model surface; virus buffer, ~25 °C; after adding 1 mM Neu5Ac; koff of the single bond from a Bell-Evans fit of the DFS plot
[7] = molecular target: His6-tagged junctional adhesion molecule A (UniProt Q9Y624); assay: single-virus force spectroscopy (FD-based AFM); virus particles on the AFM tip through a PEG27 linker; His6-JAM-A on an NTA-Ni2+ gold model surface; virus buffer, ~25 °C; after adding 1 mM LSTa; koff of the single bond from a Bell-Evans fit of the DFS plot
[8] = molecular target: His6-tagged junctional adhesion molecule A (UniProt Q9Y624); assay: single-virus force spectroscopy (FD-based AFM); virus particles on the AFM tip through a PEG27 linker; His6-JAM-A on an NTA-Ni2+ gold model surface; virus buffer, ~25 °C; after adding 1 mM LNnT (no sialic acid); koff of the single bond from a Bell-Evans fit of the DFS plot

For “reovirus σ1 attachment protein of mutant strain T3SA− (P204L), on purified virions (from UniProt P03528 1-455) (natural protein)”, the frequency of adhesion events [1] was 4%, the koff [2] was 0.05 s⁻¹ and the specific binding force [2] was 20 to 130 pN.
For “reovirus σ1 attachment protein of strain T3SA+, on purified virions (from UniProt P03528 1-455) (natural protein)”, the overall binding force with 1 mM Neu5Ac or LSTa [3] was less than 400 pN, the simultaneous virus-receptor bonds in the presence of α-SA [3] was less than 3 and the binding frequency after 1 mM LNnT [4] was 3.9%. For the same substance, the binding frequency before LNnT [1] was 3.8%, the binding frequency before LSTa [1] was 3.8% and the binding frequency before Neu5Ac [1] was 3.9%. The density of adhesion events [1] was 3.5%, the rupture force [1] was 50 to 400 pN and the simultaneous virus-receptor bonds [1] was less than 4. The binding frequency after 1 mM LSTa [5] was 4.8%, the binding frequency after 1 mM Neu5Ac [5] was 4.9% and the increase in binding after Neu5Ac against before, neuraminidase-treated cells [5] was 20%. The koff [2] was 0.04 s⁻¹ and the specific binding force [2] was 20 to 130 pN.
“reovirus σ1 attachment protein on T3SA+ infectious subvirion particles (from UniProt P03528 1-455) (natural protein)” showed a koff [6] of 0.18 s⁻¹.
For “reovirus σ1 attachment protein on T3SA- virions (P204L) (from UniProt P03528 1-455)”, the koff [7] was 0.24 s⁻¹, the koff [6] was 0.08 s⁻¹ and the koff [8] was 0.07 s⁻¹.
